# Source: patent publication US12024544B2, “CCN3 and CCN3 peptides and analogs thereof for therapeutic use” (Rosalind Franklin University of Medicine & Science, priority 2010, dated 2024)
# Entries after “also recorded” stand apart in the source; their conditions may differ.
# B1: CCN3: full-length recombinant human CCN3 protein (SEQ. ID. No. 67), commercial (Pepro Tech) or made in HEK-293 (protein)
# chain: MQVAATQRCPPQCPGRCPATPPTCAPGVRAVLDGCSCCLVCARQRGESCSDLEPCDESSGLYCDRSADPSNQTGICTAVEGDNCVFDGVIYRSGEKFQPSCKFQCTCRDGQIGCVPRCQLDVLLPEPNCPAPRKVEVPGECCEKWICGPDEEDSLGGLTLAAYRPEATLGVEVSDSSVNCIEQTTEWTACSKSCGMGFSTRVTNRNRQCEMLKQTRLCMVRPCEQEPEQPTDKKGKKCLRTKKSLKAIHLQFKNCTSLHTYKPRFCGVCSDGRCCTPHNTKTIQAEFQCSPGQIVKKPVMVIGTCTCHTNCPKNNEAFLQELELKTTRGKM
# What was measured:
# human skin fibroblasts = experiment: human skin fibroblast proliferation; type: cell-based
# Source text: To test this we used a cell culture model of skin healing/scarring, which employed the use of primary human skin fibroblasts derived from foreskins collected post circumcision. These have been used extensively in the past to grown in culture and treated with agents that are known to drive wound healing and or scarring. We were also interested in a rare form of skin fibrosis/scarring that can lead to systemic disease and death known as nephrogenic systemic fibrosis (NSF). NSF is a complication of NMR diagnostics in renal impaired patients, where gadolinium (GAD), a heavy metal, is used as a contrast agent, but in some cases appears to deposit in skin. Although the mechanism for development of skin fibrosis and subsequent systemic disease is not yet completely understood, we have developed a model that has allowed elucidation of the probable pathway to skin fibrosis (Bhagavathula, N., M. K. Dame, M. DaSilva, W. Jenkins, M. N. Aslam, P. Perone and J. Varani (2010)). “Fibroblast response to gadolinium: role for platelet-derived growth factor receptor.” Invest Radiol 45(12): 769-777). This disease is characterized as a hyperproliferative disease, and in our model it was shown that PDGF produced by resident skin fibroblasts are stimulated by GAD to increase their production of PDGF which acts to induce proliferation and the increased production of MMPs, regulators of ECM breakdown and thus turnover, including the major MMP, MMP-1. At the same time tissue inhibitors of MMPs (TIMPs) are also affected by exposure to GAD. […] It appears that local fibroblasts then respond to this increased TGF-beta by increasing their production of ECM, including predominantly collagen type 1.
# We examined the role of CCN3 and CCNp in fibroproliferative/fibrotic responses in human dermal fibroblasts exposed to Omniscan, one of the gadolinium-based contrast agents associated with development of nephrogenic systemic fibrosis. These studies were carried out as we have previously described (Riser, B. L., N. Bhagavathula, P. Perone, K. Garchow, Y. Xu, G. J. Fisher, F. Najmabadi, D. Attili and J. Varani (2012)). “Gadolinium-induced fibrosis is counter-regulated by CCN3 in human dermal fibroblasts: a model for potential treatment of nephrogenic systemic fibrosis.” J Cell Commun Signal 6(2): 97-105.). In our studies, human dermal fibroblasts were exposed to Omniscan; or to PDGF and TGF-β1 as controls. Cellular proliferation was assessed along with MMP-1 (by ELISA and gelatin zymography), TIMP-1 (by ELISA) and COL1 (by ELISA) in the absence and presence of CCN3 and CCNp. CCN3 and CCNp38 was added to cells at 10 nM concentration and at the same time as PDGF. In parallel, CCN3 production was assessed in control and Omniscan-treated cells. In most case the results shown (each bar) are the mean of 3-5 separate experiments, using fibroblasts from different donors. CCN3 was produced in our laboratory from the human embryonic kidney cell line (HEK-293) transfected with the complete human CCN3 gene, and producing an approximate 55 kDa, full-length CCN3 product. A second source of CCN3 was obtained from Pepro Tech Corporation (Rocky Hill, NJ) and is produced in a prokaryote cell line.
# Next we created and tested for efficacy, additional CCNp including those with the cysteines intact (native sequence) from CCNp37 and CCNp38 and those that were modified by either shortening the peptide by 1 or 2 amino acids or lengthening by one amino acid. These agents were added to human skin fibroblasts in increasing concentrations from 1 nM to 100 nM and compared to the equal concentration of CCN3 (SEQ. ID. NO: 67). They were added just prior to the addition of either TGF-beta or PDGF, depending on the experiment.
# pro-collagen type 1 = pro-collagen type 1 production by human skin fibroblasts; type: cell-based; conditions: TGF-beta, 10 nM, FIG. 21
# Source text: To test this we used a cell culture model of skin healing/scarring, which employed the use of primary human skin fibroblasts derived from foreskins collected post circumcision. These have been used extensively in the past to grown in culture and treated with agents that are known to drive wound healing and or scarring. We were also interested in a rare form of skin fibrosis/scarring that can lead to systemic disease and death known as nephrogenic systemic fibrosis (NSF). NSF is a complication of NMR diagnostics in renal impaired patients, where gadolinium (GAD), a heavy metal, is used as a contrast agent, but in some cases appears to deposit in skin. Although the mechanism for development of skin fibrosis and subsequent systemic disease is not yet completely understood, we have developed a model that has allowed elucidation of the probable pathway to skin fibrosis (Bhagavathula, N., M. K. Dame, M. DaSilva, W. Jenkins, M. N. Aslam, P. Perone and J. Varani (2010)). “Fibroblast response to gadolinium: role for platelet-derived growth factor receptor.” Invest Radiol 45(12): 769-777). This disease is characterized as a hyperproliferative disease, and in our model it was shown that PDGF produced by resident skin fibroblasts are stimulated by GAD to increase their production of PDGF which acts to induce proliferation and the increased production of MMPs, regulators of ECM breakdown and thus turnover, including the major MMP, MMP-1. At the same time tissue inhibitors of MMPs (TIMPs) are also affected by exposure to GAD. […]
# We examined the role of CCN3 and CCNp in fibroproliferative/fibrotic responses in human dermal fibroblasts exposed to Omniscan, one of the gadolinium-based contrast agents associated with development of nephrogenic systemic fibrosis. […] Cellular proliferation was assessed along with MMP-1 (by ELISA and gelatin zymography), TIMP-1 (by ELISA) and COL1 (by ELISA) in the absence and presence of CCN3 and CCNp. […] In parallel, CCN3 production was assessed in control and Omniscan-treated cells. […]
# BTBR Ob/Ob mouse = BTBR Ob/Ob mouse model of diabetic renal disease; type: in vivo
# Protocol: This was carried out using the BTBR Ob/Ob mouse strain that has a defective leptin receptor that results in increased appetite. As a result it rapidly gains weight over the control strain and becomes hyperglycemic at about one month of age, going on to develop renal disease resembling that in humans. This is regarded by some to be the rodent model best mirroring renal disease in humans as a complication of diabetes. Animals were treated with either rCCN3 (SEQ. ID. NO: 67) or CCNp38 (SEQ. ID. NO: 38) beginning at 9 weeks of age, when early renal disease has been documented. The disease was allowed to develop for 9 weeks, then treatment started. Mice were treated 3 times per week for 8 weeks. At 17 weeks, blood and urine were collected, and animals sacrificed with organ samples collected. The effect of treatment with either CCN3 (2 concentrations, 2 or 20× the circulating amounts) or mimic peptide (CCNp38, 2 concentrations, 20 or 200× the equivalent molar circulating concentration of CCN3) was tested. Assays to determine the effect of CCN3 or peptide on expression of target fibrosis genes and clinical pathology were determined using methods as previously described (Riser, Amer J Pathology 2009) and (McIntosh, L M, et al., Selective CCR2-targeted macrophage depletion ameliorates experimental mesangioproliferative glomerulonephritis, Clinical and Experimental Immunology, 2008, 155, 295-303).
# This was carried out using the BT/BR Ob/Ob mouse strain that has a defective leptin receptor that results in increased appetite. As a result mice rapidly gain weight over the control strain and become hyperglycemic at about one month of age going on to develop renal disease resembling that in humans. This is regarded by some to be the best rodent model for mirroring renal disease in humans as a complication of diabetes. […] Animals were treated with either rCCN3 (SEQ. ID. NO: 67) or CCNp38 (SEQ. ID. NO: 38) beginning at 9 weeks of age, when early renal disease has been documented. Mice were treated for 8 weeks, then sacrificed and measured for renal disease and other complications, and the effect drug treatment. Test animals were documented to have developed diabetes by 9 weeks, and were randomized for treatment, thus providing equivalent blood glucose levels in each treated group.
molecule,measurement,setting,value
B1,"inhibition of PDGF-stimulated proliferation, comparison of modifications","human skin fibroblasts; 1 nM to 100 nM, FIGS. 22-24",dose-dependent efficacy
same,reduction in PDGF-stimulated proliferation,"human skin fibroblasts; 1 nM, FIG. 22",slightly decreased proliferation
same,reduction in PDGF-stimulated proliferation,"human skin fibroblasts; 10 nM, FIG. 23",33%
same,reduction in PDGF-stimulated proliferation,"human skin fibroblasts; 100 nM, FIG. 24",46%
same,block of PDGF-stimulated fibroblast proliferation,"human skin fibroblasts; PDGF, 10 nM, FIG. 15",this stimulation is blocked
same,effect on baseline cell growth,"human skin fibroblasts; TGF-beta (does not stimulate proliferation), FIG. 16",neither CCN3 (SEQ. ID. No. 67) nor CCNp38-3 (Seq. ID. No. 56) has an effect on baseline cell growth
same,block of TGF-beta-induced increase in pro-collagen production,pro-collagen type 1,completely block the increase
same,effect on elevated plasma creatinine,"BTBR Ob/Ob mouse; 17 weeks of diabetes, 8 weeks of treatment 3 times per week, FIG. 35",reduces or blocks this pathology; also recorded: reduces or blocks this impairment
same,effect on elevated albumin to creatinine ratio,"BTBR Ob/Ob mouse; 17 weeks of diabetes, 8 weeks of treatment, FIG. 36",greatly blocks this pathology; also recorded: greatly blocks this renal damage
same,"effect on mesangial expansion (PAS staining, image analysis)","BTBR Ob/Ob mouse; 17 weeks of diabetes, 8 weeks of treatment, FIG. 37",greatly block this pathology and treats the disease; also recorded: greatly blocks this pathology
same,effect on increased renal mRNA levels for CCN2,"BTBR Ob/Ob mouse; kidney, 8 weeks of treatment, FIG. 38",greatly reduces or blocks the increase
same,effect on increased renal mRNA levels for Col1A2,"BTBR Ob/Ob mouse; kidney, 8 weeks of treatment, FIG. 39",greatly reduces or blocks the increase
